{"source": "paper PMC8555654", "origin": "cited, not measured here", "molecular_target": "PlexA2 (Mus musculus) (UniProt P70207)", "sequence (P70207 35-1237)": "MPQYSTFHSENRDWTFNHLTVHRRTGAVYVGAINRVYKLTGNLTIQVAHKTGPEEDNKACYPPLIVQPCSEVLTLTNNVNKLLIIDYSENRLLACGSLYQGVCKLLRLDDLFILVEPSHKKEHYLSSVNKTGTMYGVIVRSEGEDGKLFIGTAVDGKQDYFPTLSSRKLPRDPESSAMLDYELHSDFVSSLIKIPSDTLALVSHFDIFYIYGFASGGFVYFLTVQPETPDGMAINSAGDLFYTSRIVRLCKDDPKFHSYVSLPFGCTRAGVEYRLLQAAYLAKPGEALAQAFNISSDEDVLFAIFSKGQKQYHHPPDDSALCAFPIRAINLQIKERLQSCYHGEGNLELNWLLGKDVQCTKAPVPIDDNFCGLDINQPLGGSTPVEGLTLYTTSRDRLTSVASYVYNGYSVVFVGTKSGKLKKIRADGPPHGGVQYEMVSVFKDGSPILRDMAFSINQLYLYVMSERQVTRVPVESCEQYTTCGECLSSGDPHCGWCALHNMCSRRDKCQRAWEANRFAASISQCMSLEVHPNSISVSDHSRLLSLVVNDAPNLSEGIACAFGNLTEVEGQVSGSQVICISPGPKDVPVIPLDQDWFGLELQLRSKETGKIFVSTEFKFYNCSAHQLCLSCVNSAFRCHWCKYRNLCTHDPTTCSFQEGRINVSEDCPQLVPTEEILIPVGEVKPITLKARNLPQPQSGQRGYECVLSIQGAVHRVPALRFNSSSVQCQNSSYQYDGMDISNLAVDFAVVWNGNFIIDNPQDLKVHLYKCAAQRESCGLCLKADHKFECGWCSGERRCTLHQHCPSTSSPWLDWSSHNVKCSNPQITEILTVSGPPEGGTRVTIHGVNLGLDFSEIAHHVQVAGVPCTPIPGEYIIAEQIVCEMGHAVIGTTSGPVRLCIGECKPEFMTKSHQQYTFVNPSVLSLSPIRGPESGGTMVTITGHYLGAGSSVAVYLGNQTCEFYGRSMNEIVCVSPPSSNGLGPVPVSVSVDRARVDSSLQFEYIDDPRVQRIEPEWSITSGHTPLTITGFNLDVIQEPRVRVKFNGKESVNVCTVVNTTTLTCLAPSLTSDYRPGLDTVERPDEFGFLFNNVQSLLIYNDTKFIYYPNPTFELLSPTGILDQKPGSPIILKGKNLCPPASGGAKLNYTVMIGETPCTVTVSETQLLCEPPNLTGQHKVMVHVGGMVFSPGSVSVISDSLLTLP", "data": [{"substance": "Npn1 (from UniProt P97333)", "values": [{"measurement": "Kd", "result": 66, "unit": "µM"}]}]}
